B1: AgdC (Aspergillus niger CBS 513.88) (protein)
chain: MAKSASQIHRAWWKECSVYQIWPASYKDSNDDGIGDIPGIISKLDYIKNIGVDIVWLCPSYKSPQVDMGYDIADYYSIADEYGTVADVEKLIQGCHERGMKLLMDLVVNHTSDQNEWFKQSRSSKDNKYRNWYVWKPARYDEQGNRHPPNNWVSHFQGSAWEWDEHTGEYYLHLYATEQPDLNWEHPPVRKAVHDIMRFWLDKGADGFRMDVINFISKDQRFPDAPVKDPRTPWQWGDKYYANGPRLHEYLQDLGKILKEYDAFSVGEMPFVRDTEEVLRAVRYDRNEINMIFNFEHVDIDHGTYDKFEPGSWKLTDLKAFFETWQKFMYNNDGWNALYWENHDQPRSIDRYAQAKEEFRTEAGKMLATVLALQSGTPFVYQGQEIGMRNVPVEWDMNEYKDIDCLNHWHRLLKHRPDDIEAQKSARQEYQKKSRDNGRTPVQWSSAPNGGFTGPNAKPWMSVSPDYVRFNAEAQVNDPNSIYHYWAAVLGLRKKYLDIFVYGDYDLVDKDSQEIFAYARQYENKKALVLTNWTEKTLEWDATTNGVKGVKDVLLNSYESAEAAKGRFSGQKWSLRPYEAVVLLVEA
B2: Agl1 (Aspergillus oryzae RIB40) (protein)
chain: MATPGNQNHRAWWKESSVYQIWPCSFKDSNDDGIGDIPGIISKLDHIKNLGIDIVWLCPSYKSPQVDMGYDIADYYDIAPEYGTVADVEKLIKGCHERGMKLLMDLVVNHTSDQHEWFKQSRSSKDNEYRNWYIWKPARYDEQGNRQPPNNWVSHFQGSAWEWDEHTQEYYLHLYATEQPDLNWEHPPVRKAVHDIMRFWLDKGANGFRMDVINFISKDQRFPDAPIKDPRTPWQWGDKYYANGPRLHEYFQELGKILKEYDTFSVGEMPFVTDTEEVLRAVKYDRNELNMIFNFEHVDIDHGKYDKFEPGSWELTDLKFFFERWQKFMYENDGWNALYWENHDQPRSVDRYTNAKEEDRVIASKMLATILALKAGSPFVYQGQEIGMGNVPPEWDIEEYKDIDCLNHWKRLPNDPEIQKIARQEYQKKSRDNGRTPVQWTNAPNAGFTSPNVKPWMSVNPNYARGINAEAQVNDPNSTYSYWASVLGLRKKYVDIFVYGNYELVDRDSQEIFAYTRQYEDQKALVLANWTDGTLEWDSSSNGVKAVKDVLLNTYDSASDVKERFSGSKWSLRPYEAVVLLIEA

Experiments:
Foagl1 = settings: conditions not stated for this substrate
purified protein [1] = substrate: CO[C@H]1O[C@H](CO)[C@@H](O)[C@H](O)[C@H]1O; assay: purified protein; settings: conditions not stated for this substrate
purified protein [2] = substrate: O=[N+]([O-])c1ccc(O[C@H]2O[C@H](CO)[C@@H](O)[C@H](O)[C@H]2O)cc1; assay: purified protein; settings: pH 6.0, sodium phosphate, 30 °C

Molecule | Km (Foagl1) [mM] | Km (purified protein [1]) [mM] | kcat (purified protein [1]) [s⁻¹] | Km (purified protein [2]) [mM] | kcat (purified protein [2]) [s⁻¹] | kcat/Km (purified protein [2]) [M⁻¹ s⁻¹]
CO[C@H]1O[C@H](CO)[C@@H](O)[C@H](O)[C@H]1O [α-MG] | 24.3 |  |  |  |  | 
B1 |  | 32.8 | 5.0 | 7.8 | 19.8 | 
B2 |  | 31.3 |  | 8.3 | 17.5 | 2120
